Experiments:
[1] = target: his-labeled human IL-13 (immunogen A) (human) (UniProt P35225); test: FACS blocking, biotin-IL-13 on IL-13Ra2 HEK293 cells; antibody at 0.27 nM
[2] = target: his-labeled human IL-13 (immunogen A) (human) (UniProt P35225); test: FACS blocking, biotin-IL-13 on IL-13Ra2 HEK293 cells; antibody at 6.67 nM
[3] = target: his-labeled human IL-13 (immunogen A) (human) (UniProt P35225); test: FACS blocking, biotin-IL-13 on IL-13Ra1/IL-4Ra HEK293 cells; antibody at 1.33 nM
[4] = target: his-labeled human IL-13 (immunogen A) (human) (UniProt P35225); test: FACS blocking, biotin-IL-13 on IL-13Ra1/IL-4Ra HEK293 cells; antibody at 6.67 nM
[5] = target: his-labeled human IL-13 (immunogen A) (human) (UniProt P35225); test: ELISA, biotin-immunogen A; antibody at 0.001 nM
[6] = target: his-labeled human IL-13 (immunogen A) (human) (UniProt P35225); test: FACS blocking, biotin-IL-13 on IL-13Ra1/IL-4Ra HEK293 cells; antibody at 0.27 nM
[7] = target: his-labeled human IL-13 (immunogen A) (human) (UniProt P35225); test: FACS blocking, biotin-IL-13 on IL-13Ra1/IL-4Ra HEK293 cells; antibody at 0.002 nM
[8] = target: cynomolgus IL-13 (purchased from sino biological) (cynomolgus) (UniProt Q0PW92); test: ELISA, cynomolgus IL-13; antibody at 0.11 nM
Sequence of cynomolgus IL-13 (purchased from sino biological) (cynomolgus) (Q0PW92 entry or part of it): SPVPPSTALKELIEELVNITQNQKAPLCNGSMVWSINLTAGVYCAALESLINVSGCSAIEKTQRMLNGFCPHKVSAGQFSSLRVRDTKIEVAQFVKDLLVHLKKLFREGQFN

[9] = target: cynomolgus IL-13 (purchased from sino biological) (cynomolgus) (UniProt Q0PW92); test: ELISA, cynomolgus IL-13; antibody at 2.67 nM
[10] = target: his-labeled human IL-13 (immunogen A) (human) (UniProt P35225); test: FACS blocking, biotin-IL-13 on IL-13Ra1/IL-4Ra HEK293 cells; antibody at 166.67 nM
[11] = target: cynomolgus IL-13 (purchased from sino biological) (cynomolgus) (UniProt Q0PW92); test: ELISA, cynomolgus IL-13; antibody at 0.004 nM
[12] = target: his-labeled human IL-13 (immunogen A) (human) (UniProt P35225); test: FACS blocking, biotin-IL-13 on IL-13Ra2 HEK293 cells; antibody at 0.01 nM
[13] = target: his-labeled human IL-13 (immunogen A) (human) (UniProt P35225); test: FACS blocking, biotin-IL-13 on IL-13Ra1/IL-4Ra HEK293 cells; antibody at 0.05 nM
[14] = target: his-labeled human IL-13 (immunogen A) (human) (UniProt P35225); test: FACS blocking, biotin-IL-13 on IL-13Ra1/IL-4Ra HEK293 cells; antibody at 33.33 nM
[15] = target: his-labeled human IL-13 (immunogen A) (human) (UniProt P35225); test: FACS blocking, biotin-IL-13 on IL-13Ra2 HEK293 cells; antibody at 0.002 nM
[16] = target: his-labeled human IL-13 (immunogen A) (human) (UniProt P35225); test: FACS blocking, biotin-IL-13 on IL-13Ra2 HEK293 cells; antibody at 0.05 nM
[17] = target: his-labeled human IL-13 (immunogen A) (human) (UniProt P35225); test: FACS blocking, biotin-IL-13 on IL-13Ra2 HEK293 cells; antibody at 1.33 nM
[18] = target: his-labeled human IL-13 (immunogen A) (human) (UniProt P35225); test: FACS blocking, biotin-IL-13 on IL-13Ra2 HEK293 cells; antibody at 166.67 nM
[19] = target: his-labeled human IL-13 (immunogen A) (human) (UniProt P35225); test: FACS blocking, biotin-IL-13 on IL-13Ra1/IL-4Ra HEK293 cells; antibody at 0.01 nM
[20] = target: his-labeled human IL-13 (immunogen A) (human) (UniProt P35225); test: FACS blocking, biotin-IL-13 on IL-13Ra2 HEK293 cells; antibody at 33.33 nM
[21] = target: cynomolgus IL-13 (purchased from sino biological) (cynomolgus) (UniProt Q0PW92); test: ELISA, cynomolgus IL-13; antibody at 0.021 nM
[22] = target: his-labeled human IL-13 (immunogen A) (human) (UniProt P35225); test: ELISA, biotin-immunogen A; antibody at 0.11 nM
[23] = target: cynomolgus IL-13 (purchased from sino biological) (cynomolgus) (UniProt Q0PW92); test: ELISA, cynomolgus IL-13; antibody at 0.53 nM
[24] = target: his-labeled human IL-13 (immunogen A) (human) (UniProt P35225); test: cell-based or functional assay

B1: 29D9H8 (lead antibody, mouse hybridoma) (antibody, V domains shown)
VH: QVQLQQSGAELVRPGASVTLSCKASGYTFTDYEMHWVKQTPVHGLEWIGGIDPETGGTASNQKFKGKAILTADKSSSTAYMELRSLTSEDSAVYYCTSGDYFGGGPFAYWGQGTLVTVSA
VL: DIKMTQSPSSMYASLGERVTITCKASQDINSYLSWFQQKPGKSPKTLIYRANRLVDGVPSRFSGSGSGQDYSLTISSLDYEDMGIYYCLQYDEFPYTFGGGTKLEIK
notes: Mouse monoclonal antibody purified from hybridoma supernatant on Protein G
[1]
  mean fluorescence intensity: 45.4
[2]
  mean fluorescence intensity: 23.6
[3]
  mean fluorescence intensity: 24
[4]
  mean fluorescence intensity: 16.6
[5]
  OD450 nm: 0.07
[6]
  mean fluorescence intensity: 45.3
[7]
  mean fluorescence intensity: 75.3
[8]
  OD450 nm: 1.24
[9]
  OD450 nm: 2.36
[10]
  mean fluorescence intensity: 14.8
[11]
  OD450 nm: 0.19
[12]
  mean fluorescence intensity: 74.6
[13]
  mean fluorescence intensity: 68.5
[14]
  mean fluorescence intensity: 15.9
[15]
  mean fluorescence intensity: 76.3
[16]
  mean fluorescence intensity: 67.6
[17]
  mean fluorescence intensity: 32.3
[18]
  mean fluorescence intensity: 20.5
[19]
  mean fluorescence intensity: 74.2
[20]
  mean fluorescence intensity: 21.5
[21]
  OD450 nm: 0.56
[22]
  OD450 nm: 0.85
[23]
  OD450 nm: 2.05
[24]
  TARC (pg/mL), A549 cells + IL-13 5 ng/mL + TNFα; antibody at 0.001 nM: 1910 pg/mL
  TARC (pg/mL), A549 cells + IL-13 5 ng/mL + TNFα; antibody at 0.004 nM: 1720 pg/mL
  TARC (pg/mL), A549 cells + IL-13 5 ng/mL + TNFα; antibody at 0.021 nM: 1600 pg/mL
  TARC (pg/mL), A549 cells + IL-13 5 ng/mL + TNFα; antibody at 0.11 nM: 1300 pg/mL
  TARC (pg/mL), A549 cells + IL-13 5 ng/mL + TNFα; antibody at 0.5 nM: 653 pg/mL
  TARC (pg/mL), A549 cells + IL-13 5 ng/mL + TNFα; antibody at 2.7 nM: 146 pg/mL
  TARC (pg/mL), A549 cells + IL-13 5 ng/mL + TNFα; antibody at 13.3 nM: 53 pg/mL
  TARC (pg/mL), A549 cells + IL-13 5 ng/mL + TNFα; antibody at 66.7 nM: 42 pg/mL

Source: patent US20190309059A1 (SHANGHAI PHARMAEXPLORER, published 2019)
